Assay results taken from the supplement of paper PMC9732359.
± gives the uncertainty stated by the source.

Test: protein stability index of a GFP-peptide fusion (yeast GPS) (PSI 1-4); higher = more stable; sorted into four equal gates, so the index is relative within each strain
Outline: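 Plasmids isolated from each sorting gate were PCR-amplified and Illumina-sequenced, and barcodes assigned the reads to strains. The gates, four of equal size, were set by GFP/Cherry fluorescence ratio on mid-log cultures in leucine-free medium. These cultures were yeast carrying a pooled library of tiled 17-residue yeast protein peptides fused downstream of GFP on a plasmid that also expresses Cherry. The protein stability index is the sum of every gate's read frequency times its gate number.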

Row | Sequence | protein stability index (doa10∆) | protein stability index (pdr5∆) | protein stability index (san1∆) | protein stability index (ubr1∆)
1 | ELKNELAKTKENYDAKI [YIL149C/MLP2] | 3.22 ± 0.073 | 3.43 ± 0.071 | 3.15 ± 0.052 | 3.08 ± 0.076
2 | VNITKFSKFERSKSSHK [SKI6] | 2.73 ± 0.095 | 2.65 ± 0.059 | 2.76 ± 0.064 | 2.62 ± 0.048
3 | RARGPMQVLTRQPVEGR [RPB2] | 2.88 ± 0.2 | 2.36 ± 0.21 | 2.79 ± 0.11 | 2.98 ± 0.24
4 | LDDFGEEELFEVTKEED [RRP43] | 2.92 ± 0.11 | 2.54 ± 0.15 | 2.36 ± 0.12 | –
5 | ISAFTQFLRLIFVSILS [ARP9] | 2.17 ± 0.065 | 1.88 ± 0.1 | 2.9 ± 0.12 | 1.22 ± 0.027
6 | SEVGDAFIFGLQDELKE [SMC3] | 3.2 ± 0.067 | 3.31 ± 0.061 | 3.1 ± 0.057 | 3.25 ± 0.072
7 | PPSSFGRSHTRNSTRSS [REC8] | 3.04 ± 0.14 | 2.65 ± 0.17 | 3.14 ± 0.087 | 2.96 ± 0.17
8 | GYYVGYKATATGPKQQE [SCL1] | 3.1 ± 0.12 | 3.2 ± 0.088 | 3.02 ± 0.12 | 3.25 ± 0.14
9 | VDLIEKFLRYNPLEKRD [RPB10] | 2.91 ± 0.14 | 3.27 ± 0.12 | 3.23 ± 0.071 | 3.11 ± 0.041
10 | LPPPPPPPGLDELETKA [PRP8] | 3.13 ± 0.056 | 3.15 ± 0.057 | 3.25 ± 0.05 | 3.17 ± 0.05
11 | LPMDTNLFKINSIDVPI [YMR129W/POM152] | 1.98 ± 0.048 | 1.92 ± 0.035 | 2.49 ± 0.062 | 1.95 ± 0.045
12 | SPISDSRDELIRLAKTL [RPN10] | 1.84 ± 0.095 | 1.77 ± 0.084 | 2.37 ± 0.16 | 2.24 ± 0.085
13 | EEVQQAQTEIKLFNKWS [RPS5] | 3.17 ± 0.1 | 3.21 ± 0.096 | 3.25 ± 0.076 | 3.27 ± 0.075
14 | MKLSMPPEVTSSNCHVR [POP1] | 2.4 ± 0.066 | 2.6 ± 0.075 | 2.32 ± 0.076 | 2.48 ± 0.042
15 | RYRLLSDVSDFEGWGHE [RPN1] | 2.63 ± 0.12 | 3.35 ± 0.1 | 3.07 ± 0.09 | 2.83 ± 0.12
16 | EDNYNPKMQWSLQDNSA [RPN4] | 3.21 ± 0.11 | 3.3 ± 0.13 | 3.22 ± 0.087 | 3.07 ± 0.068
17 | YVDEQSKNELKKAFTSY [RPS16A] | 3.06 ± 0.059 | 3.21 ± 0.044 | 3.07 ± 0.051 | 3.13 ± 0.052
18 | MSGILHCEDKDYKTAFS [RPN6] | 2.95 ± 0.07 | 2.89 ± 0.071 | 2.51 ± 0.072 | 3.16 ± 0.049
19 | KVVNGNSADAAYAQVEI [FAS2] | 2.53 ± 0.063 | 2.67 ± 0.07 | 2.14 ± 0.068 | 2.42 ± 0.057
20 | SNNITSGLNRAISTGNW [RET1] | 3.13 ± 0.11 | 3.37 ± 0.11 | 3.25 ± 0.061 | 3 ± 0.079
21 | EIMQQKFPATNVTTILD [ECM29] | 2.41 ± 0.061 | 2.47 ± 0.055 | 2.19 ± 0.063 | 2.45 ± 0.057
22 | DKLLDFIRYDVKTPKKT [CSN12] | 2.73 ± 0.046 | 2.64 ± 0.045 | 2.2 ± 0.052 | 2.99 ± 0.053
23 | VDPIQSVKGKVVIDAFR [RPN11] | 2.59 ± 0.072 | 2.65 ± 0.092 | 2.1 ± 0.093 | 2.26 ± 0.081
24 | TGWITQSTPVLLNHGER [RPN1] | 2.61 ± 0.061 | 2.23 ± 0.044 | 1.88 ± 0.056 | 2.53 ± 0.037
25 | VNGFLNLGYCNDKLIVD [RPN1] | 3.32 ± 0.098 | 2.78 ± 0.067 | 2.89 ± 0.052 | 2.49 ± 0.079
26 | PNIMLIFGSGFGSADDT [FAS1] | 3.07 ± 0.07 | 2.92 ± 0.073 | 3.12 ± 0.067 | 2.24 ± 0.065
27 | RIANIEQNHLDNNYNTA [YDL088C/ASM4] | 3.11 ± 0.065 | 3.18 ± 0.071 | 3.08 ± 0.044 | 3.03 ± 0.064

Row | Sequence | protein stability index (doa10∆) | protein stability index (pdr5∆) | protein stability index (san1∆) | protein stability index (ubr1∆)
28 | PMDAYLKLNHIIANINS [SNU114] | 1.26 ± 0.078 | 2.59 ± 0.085 | 1.97 ± 0.22 | 2.4 ± 0.097
29 | PIPIAVLDSYTPSTNEP [FAS1] | 2.78 ± 0.07 | 2.59 ± 0.063 | 2.69 ± 0.074 | 2.85 ± 0.041
30 | PSRQFDHYESNQLVAKL [SRB8] | 3.02 ± 0.061 | 2.85 ± 0.064 | 2.98 ± 0.064 | 3.17 ± 0.041
31 | DLCSLKPYVDRFAFSVI [DIS3] | 1.93 ± 0.05 | 1.87 ± 0.052 | 1.93 ± 0.065 | 2.27 ± 0.04
32 | FRPIEIFTDFLPSSNGS [RRP42] | 2.19 ± 0.065 | 3.07 ± 0.08 | 3.09 ± 0.056 | 2.87 ± 0.063
33 | NVIRSLEQEYRLILLLN [RMP1] | 1.44 ± 0.036 | 1.19 ± 0.022 | 1.29 ± 0.071 | 1.35 ± 0.038
34 | AALRTVKSLVDNMITGV [RPL9A] | 2.5 ± 0.091 | 3.17 ± 0.076 | 2.99 ± 0.071 | 3.03 ± 0.075
35 | QQWGNDFYKRDPRIAPL [FAS2] | 1.88 ± 0.058 | 2 ± 0.048 | 1.87 ± 0.1 | 2 ± 0.05
36 | RKIKRLEKFLQGRDTSK [SRP72] | 2.79 ± 0.1 | 2.16 ± 0.059 | 2.14 ± 0.12 | 2.76 ± 0.048
37 | HIAHTLPEKVNFRTMQQ [SSN2] | 2.78 ± 0.079 | 2.92 ± 0.072 | 2.83 ± 0.083 | 2.75 ± 0.071
38 | LLIRSKTEDPKGGIIAS [YML031W/NDC1] | 2.37 ± 0.14 | 2.36 ± 0.085 | 2.28 ± 0.085 | 2.66 ± 0.17
39 | GNEVSSLYPPPPPYVKF [MED7] | 3.17 ± 0.087 | 3.08 ± 0.065 | 2.74 ± 0.079 | 3.13 ± 0.049
40 | NTLRMKHGTYDKLDDDG [RPB2] | 2.77 ± 0.077 | 2.83 ± 0.061 | 2.83 ± 0.063 | 2.89 ± 0.045
41 | GQSSSIQSSLMTNLTYF [YCS4] | 2.86 ± 0.095 | 2.74 ± 0.071 | 2.56 ± 0.086 | 2.95 ± 0.065
42 | DNDRFNVVGKLISIISS [YML103C/NUP188] | 1.3 ± 0.064 | 1.24 ± 0.073 | 1.21 ± 0.081 | 1.2 ± 0.047
43 | LEEDSKKVNGTSYKKWS [PRP8] | 3.3 ± 0.14 | 3.41 ± 0.15 | 3.24 ± 0.075 | 3.03 ± 0.092
44 | EKTMVKKNLGRLTRLWI [PRP8] | 2.28 ± 0.13 | 3.07 ± 0.12 | 1.45 ± 0.14 | 1.67 ± 0.2
45 | SLLLSSSFKEDCLSFAP [SSN2] | 2.56 ± 0.24 | 3.17 ± 0.14 | 2.76 ± 0.14 | 3.2 ± 0.19
46 | LSDIETAVNGIDTDLFG [YGL172W/NUP49] | 3.11 ± 0.079 | 3.16 ± 0.086 | 3.2 ± 0.062 | 3.19 ± 0.055
47 | FDDIFQVSEVDPGRYNK [RPB8] | 3.06 ± 0.14 | 2.75 ± 0.12 | 2.57 ± 0.18 | 2.95 ± 0.097
48 | EPLAPGNDNLIKAPTVA [YLR335W/NUP2] | 2.57 ± 0.067 | 2.77 ± 0.064 | 2.53 ± 0.053 | 2.88 ± 0.059
49 | GTGKTLLAKAVANQTSA [RPT2] | 1.96 ± 0.085 | 1.95 ± 0.1 | 2.72 ± 0.16 | 1.89 ± 0.092
50 | ESNNKKYPIFTGESWVK [YDL088C/ASM4] | 2.73 ± 0.062 | 2.59 ± 0.081 | 2.33 ± 0.083 | 2.74 ± 0.06
51 | IRDPLTQTGLLQDLEEA [RPC82] | 3.31 ± 0.23 | 3.2 ± 0.17 | 3.15 ± 0.28 | –
52 | ASELDESKDSIQDLIVK [SMC3] | 3.3 ± 0.085 | 3.04 ± 0.12 | 3.18 ± 0.13 | 3.33 ± 0.14
53 | QWSATWIAMRREKRDRT [PRP8] | 2.23 ± 0.089 | 2.64 ± 0.081 | 2.76 ± 0.18 | 2.73 ± 0.095
